Reference: patent US20050287636

proapoA-I-V156K, sequence (chain, as listed by the source V156K): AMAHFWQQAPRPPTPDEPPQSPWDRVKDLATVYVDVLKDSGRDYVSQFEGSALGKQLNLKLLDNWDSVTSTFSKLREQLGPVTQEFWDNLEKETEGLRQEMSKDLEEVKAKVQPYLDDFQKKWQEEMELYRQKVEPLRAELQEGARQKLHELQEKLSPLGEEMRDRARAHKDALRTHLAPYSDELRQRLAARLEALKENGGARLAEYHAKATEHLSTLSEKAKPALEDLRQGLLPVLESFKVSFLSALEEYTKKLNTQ
proapoA-I-D157K, sequence (chain, as listed by the source D157K): as the sequence (chain, as listed by the source V156K) above, with K171V, D172K counted along it
proapoA-I-A154E, sequence (chain, as listed by the source A154E): as the sequence (chain, as listed by the source V156K) above, with A169E, K171V counted along it
wild-type (WT) proapoA-I, sequence (chain, as listed by the source): as the sequence (chain, as listed by the source V156K) above, with K171V counted along it
proapoA-I-H155E, sequence (chain, as listed by the source H155E): as the sequence (chain, as listed by the source V156K) above, with H170E, K171V counted along it
proapoA-I-A158E, sequence (chain, as listed by the source A158E): as the sequence (chain, as listed by the source V156K) above, with K171V, A173E counted along it

B1: LCAT (lecitin:cholesterol acyltransferase) (protein)
chain: FWLLNVLFPPHTTPKAELSNHTRPVILVPGCLGNQLEAKLDKPDVVNWMCYRKTEDFFTIWLDLNMFLPLGVDCWIDNTRVVYNRSSGLVSNAPGVQIRVPGFGKTYSVEYLDSSKLAGYLHTLVQNLVNNGYVRDETVRAAPYDWRLEPGQQEEYYRKLAGLVEEMHAAYGKPVFLIGHSLGCLHLLYFLLRQPQAWKDRFIDGFISLGAPWGGSIKPMLVLASGDNQGIPIMSSIKLKEEQRITTTSPWMFPSRMAWPEDHVFISTPSFNYTGRDFQRFFADLHFEEGWYMWLQSRDLLAGLPAPGVEVYCLYGVGLPTPRTYIYDHGFPYTDPVGVLYEDGDDTVATRSTELCGLWQGRQPQPVHLLPLHGIQHLNMVFSNLTLEHINAILLGAYRQGPPASPTASPEPPPPE
Q: How did the Apparent Vmax (LCAT activation by POPC-rHDL) (wild-type (WT) proapoA-I) turn out when B1 was run?
A: 3.3

Q: What about the Apparent Vmax (LCAT activation by POPC-rHDL) (proapoA-I-D157K) of the same protein?
A: 1.8

Q: What about the Apparent Vmax (LCAT activation by POPC-rHDL) (proapoA-I-A154E) of the same protein?
A: 3.5

Q: And the Apparent Vmax (LCAT activation by POPC-rHDL) (proapoA-I-A158E)?
A: 0.5

Q: What about the Apparent Vmax (LCAT activation by POPC-rHDL) (proapoA-I-V156K) of the same protein?
A: 0.3

Q: And the Apparent Vmax (LCAT activation by POPC-rHDL) (proapoA-I-H155E)?
A: 2.6
